Source: US5258292A, “Enzymic process for the synthesis of ammonium adipate” (Rhone-Poulenc Chimie, priority 1990, dated 1993)

Legend:
enantioselective amidase = target: T1, enantioselective amidase (Rhodococcus erythropolis, UniProt P22984); assay: Substrate preference of the enantioselective amidase; type: biochemical, Brevibacterium R 312; details: compared with the 2-arylpropionamide derivatives, especially 2-phenylpropionamide and 2-(3-benzoylphenyl)propionamide
T1 sequence (P22984 2-521): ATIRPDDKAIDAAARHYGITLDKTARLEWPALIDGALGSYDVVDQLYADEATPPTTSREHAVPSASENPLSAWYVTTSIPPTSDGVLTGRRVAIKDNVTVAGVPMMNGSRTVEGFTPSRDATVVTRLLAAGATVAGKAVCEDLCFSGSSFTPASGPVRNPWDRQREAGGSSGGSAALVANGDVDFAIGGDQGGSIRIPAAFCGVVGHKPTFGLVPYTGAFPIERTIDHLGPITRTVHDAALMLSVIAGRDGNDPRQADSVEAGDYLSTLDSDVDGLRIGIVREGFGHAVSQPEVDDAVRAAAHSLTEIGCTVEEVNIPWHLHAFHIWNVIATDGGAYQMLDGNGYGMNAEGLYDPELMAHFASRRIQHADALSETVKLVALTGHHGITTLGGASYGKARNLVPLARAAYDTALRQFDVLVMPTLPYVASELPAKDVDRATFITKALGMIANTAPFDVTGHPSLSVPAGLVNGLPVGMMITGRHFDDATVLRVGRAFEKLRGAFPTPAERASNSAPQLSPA
Description: Furthermore, the selectivity of the amidase towards the R enantiomer of HPPAmide is representative of the selectivity towards the S enantiomer of the 2-arylpropionamide derivatives.

[1] = Assay of the enzymic activity: hydrolysis of 2-phenylpropionamide (HPLC); type: biochemical; details: enzyme purified to homogeneity; 1 unit = 1 μmol of 2-phenylpropionamide hydrolyzed per h; 30° C., pH 7.5
Experimental: The fraction containing the activity is incubated for 30 min at 30° C. in 500 μl of 0.1 M Tris/HCl buffer, pH 7.5, containing 5 mM DTT and 18.1 mM 2-phenylpropionamide. After incubation, 2 ml of an acetonitrile/1 N HCl mixture (90/10) and then 2 ml of a 50 mM H3 PO4 /CH3 CN mixture (75/25) are added to the incubation mixture. After centrifugation at 5000 g for 10 min, an aliquot of the supernatant is injected into an HPLC apparatus for assay of the reaction products.
Column: Nucleosil 5-C18 25 cm
One activity unit is defined as the amount of enzyme required to hydrolyze 1 μmol of 2-phenylpropionamide per h.

[2] = Enantioselective amidase activity with HPPAmide as substrate (HPLC); type: biochemical; details: purified enzyme, purity of more than 80%; 1 U = 1 μmol of HPPAcid formed per hour
Experimental: b--one unit (U) is equivalent to 1 μmol of HPPAcid formed per hour under the conditions described below.
Consequently, the enantioselective enzymic activity was detected by using 2-(4-hydroxyphenoxy)propionamide (HPPAmide) as the substrate. The reaction is carried out at 25° C., with shaking, in a 50 mM sodium phosphate buffer, pH 7.0, in the presence of Brevibacterium R 312, and is stopped by the addition of a 55/40/5 (v/v) mixture of 0.05 M phosphoric acid, acetonitrile and 1 N HCl. The culture is then centrifuged and the supernatant is analyzed by reversed-phase HPLC (Hibar-Merck RP-18; 5 μm). Elution is effected with an 85/15 (v/v) solution of 0.005 M phosphoric acid and acetonitrile and the respective concentrations of HPPAmide and HPPAcid are measured by the position of the elution peaks and compared with a standard. The enantiomeric excess, defined as the ratio (R-S)/(R+S) x 100, in which R and S are the respective concentrations of the R and S enantiomers of the HPPAcid, is deduced either from polarimetric measurements (using the sodium absorption at 589 nm) or from HPLC analysis on a chiral column.

Molecule: CC(Oc1ccc(O)cc1)C(N)=O (racemic) [R,S-2-(4-Hydroxyphenoxy)propionamide]
- substrate quality for the enantioselective amidase (enantioselective amidase): better substrate

B1: enantioselective amidase of a Rhodococcus: enzyme purified to homogeneity from a Rhodococcus; sequence in FIG. 14 (protein)
chain: GLHELTLAQVAAKIENKELSPVELLDVILARVAEIEPKISAFVTITADSARKAARLAADEIAGGHYRGPLHGVPIGLKDLFEVAGVPNTASSRVRADYIPSSDGAAVEKLTAGGAVMIGKTHTHEFAYGAITPTTRNPWDPTRTPGGSSGGTAAALAAGLIFAGMGTDTGGSIRIPAAVCGTVGLKPTYGRVSRRGVTSLSWSLDHAGPLARTVEDAAIMLNQIAGYDRADPATVDVPVPDYAAALTGDVRGLRIGVPTNFYTDNVHPEVAAAADAAVAQLAHLGAVVREVKIPMAEVIVPTEWSLLVPEASAYHQQMLRERADHYTDETRTFLEAGELVPATDYIKALRVRTLIQAAFRELFQDIDVLIAPTVSSPALPLDDLEVTWPDGTSEGGTITYVRLSAPGNVTGLPALSVPSGFTEQGLPTGIQIIGRPFDEETVLNVGHAYEGCTDWPRLAPL
- specific activity [1]: 988 U/mg of protein

B2: enantioselective amidase of Brevibacterium R 312: enzyme purified from Brevibacterium R 312, purity of more than 80%; sequence in FIG. 9 (protein)
chain: MATIRPDDKAIDAAARHYGITLDKTARLEWPALIDGALGSYDVVDQLYADEATPPTTSAEHAVPSASENPLSAWYVTTSIPPTSDGVLTGRRVAIKDNVTVAGVPMMNGSRTVEGFTPSRDATVVTRLLAAGATVAGKAVCEDLCFSGSSFTPASGPVRNPWDRQREAGGSSGGSAALVANGDVDFAIGGDQGGSIRIPAAFCGVVGHKPTFGLVPYTGAFPIERTIDHLGPITRTVHDAALMLSVIAGRDGNDPRQADSVEAGDYLSTLDSDVDGLRIGIVREGFGHAVSQPEVDDAVRAAAHSLTEIGCTVEEVNIPWHLHAFHIWNVIATDGGAYQMLDGNGYGMNAEGLYDPELMAHFASRRIQHADALSETVKLVALTGHHGITTLGGASYGKARNLVPLARAAYDTALRQFDVLVMPTLPYVASELPAKDVDRATFITKALGMIANTAPFDVTGHPSLSVPAGLVNGLPVGMMITGRHFDDATVLRVGRAFEKLRGAFPTPAERASNSAPQLSPA
- specific activity [2]: 815 U/mg
